Where a chain is given by its changes, count along the chain named. In names and notes the source's numbering stands. Blank lines part the entries; values can stand above or below the binder they belong to.
Columns and labels:
[1] = target: the molecule itself; assay: SEC; GST-MDM2 variants (3 mg/mL) incubated with 1:10 TEV for 16-20 h at 4 °C; soluble fraction of the cleaved products on Superdex 75 Increase 10/300; comparison with molecular weight markers and SDS-PAGE
[2] = target: T1, UbcH5B–Ub, isopeptide-linked E2–Ub conjugate (UbcH5B S22R C85K) (human | , UniProt P62837 1-147; P0CG48 1-76, S22R | C85K, lysine 85 (C85K) isopeptide-linked to the C-terminus of Ub | C-terminus isopeptide-linked to lysine 85 of UbcH5B); assay: SPR; GST-tagged MDM2 variants captured on a CM-5 chip with coupled anti-GST antibody; serial dilution of UbcH5B–Ub as analyte; Biacore T200, 25 °C; 25 mM Tris-HCl pH 7.6, 150 mM NaCl, 1 mM DTT, 0.005% Tween-20; two technical replicates; conditions: both partners purified
T1 construct: ubiquitin (Ub), the cut product of the ubiquitin precursor; Ub was cloned with an N-terminal 6xHis-tag, a TEV cleavage site and a GGS linker; also called E2(UbcH5B)–Ub; source: E. coli BL21(DE3) GOLD, purified; conjugate generated as described previously

[3] = target: the molecule itself; assay: SEC; cleaved MDM2 variants after removal of the GST-tag on HiLoad 16/600 Superdex 75; oligomeric state by comparison with molecular weight markers

B1: MDM2^h A434S (human MDM2 419-C A434S), GST-tag removed (domain or fragment, UniProt Q00987 419-491, looked up)
chain: TQDKEESVESSLPLNSIEPCVICQGRPKNGCIVHGKTGHLMACFTCAKKLKKRNKPCPVCRQPIQMIVLTYFP
notes: MDM2, human, residues 419 to the C-terminus, with A434S; source: E. coli BL21(DE3) GOLD, GST-MDM2 treated with TEV, soluble cleaved products on analytical SEC; not shown: GST, N-terminal, cleaved
binding result [1]: binds

Kd [2]: 16.3 ± 1.9 µM
B2: GST-tagged human MDM2 419-C G443T (MDM2^hGT) (domain or fragment, UniProt Q00987 419-491, looked up)
chain: B1 chain with S16A, G25T
notes: MDM2, human, residues 419 to the C-terminus, with G443T; pGEX-4T1, N-terminal GST-tag followed by a TEV cleavage site; GST kept for SPR and ubiquitination assays; also called GST-MDM2^hGT; MDM2^h G443T; source: E. coli BL21(DE3) GOLD, purified (glutathione Sepharose, gel filtration); not shown: GST, N-terminal, kept

B3: MDM2^h I435V (human MDM2 419-C I435V), GST-tag removed (domain or fragment, UniProt Q00987 419-491, looked up)
chain: B1 chain with S16A, I17V
notes: MDM2, human, residues 419 to the C-terminus, with I435V; source: E. coli BL21(DE3) GOLD, GST-MDM2 treated with TEV, soluble cleaved products on analytical SEC; not shown: GST, N-terminal, cleaved
binding result [1]: binds

B4: human MDM2 419-C G443T (MDM2^hGT), GST-tag removed (domain or fragment, UniProt Q00987 419-491, looked up)
chain: B1 chain with S16A, G25T
notes: MDM2, human, residues 419 to the C-terminus, with G443T; also called MDM2^h G443T; MDM2-G443T; source: E. coli BL21(DE3) GOLD, GST-tag released with TEV, Superdex 75 gel filtration; not shown: GST, N-terminal, cleaved
stoichiometry N [1]: 2

B5: MDM2^h P491S (human MDM2 419-C P491S), GST-tag removed (domain or fragment, UniProt Q00987 419-491, looked up)
chain: B1 chain with S16A, P73S
notes: MDM2, human, residues 419 to the C-terminus, with P491S; source: E. coli BL21(DE3) GOLD, GST-MDM2 treated with TEV, soluble cleaved products on analytical SEC; not shown: GST, N-terminal, cleaved
binding result [1]: binds

Kd [2]: 13.5 ± 0.6 µM
B6: GST-tagged human MDM2 419-C (MDM2^h) (domain or fragment, UniProt Q00987 419-491, looked up)
chain: B1 chain with S16A
notes: MDM2, human, residues 419 to the C-terminus (RING domain with the preceding region); pGEX-4T1, N-terminal GST-tag followed by a TEV cleavage site; GST kept for SPR and ubiquitination assays; also called GST-MDM2^h; wild-type MDM2^h; source: E. coli BL21(DE3) GOLD, purified (glutathione Sepharose, gel filtration); not shown: GST, N-terminal, kept

B7: Danio rerio MDM2 407-C (MDM2^z), GST-tag removed (domain or fragment, Danio rerio (zebrafish), UniProt O42354 377-445, looked up)
chain: FNSLEACLPATCLEPCVICQSRPKNGCIVHGRTGHLMACYTCAKKLKNRNKLCPVCREPIQSVVLTYMS
notes: MDM2, Danio rerio (zebrafish), residues 407 to the C-terminus; 407-417 correspond to 423-433 of human MDM2, which implies a numbered chain of about 475 residues; also called zebrafish MDM2 407-C; source: E. coli BL21(DE3) GOLD, GST-tag released with TEV, Superdex 75 gel filtration; not shown: GST, N-terminal, cleaved
stoichiometry N [3]: 2

— paper PMC7895813 (Journal of Molecular Biology, 2021)
